Test results published in publication PMC9601964.

Target: T1, RihR (XRE-family regulator) (Azorhizobium caulinodans ORS571) (UniProt A8IKA5)
T1 sequence: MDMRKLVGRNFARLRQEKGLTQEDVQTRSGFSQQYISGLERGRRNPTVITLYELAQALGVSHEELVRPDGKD
Assay: EMSA
Conditions: 50 mM Tris-HCl pH 8.3, 0.25 M KCl, 2.5 mM DTT, 5 mM MgCl2, 0.25 mg/mL BSA, 0.05 mg/mL poly(dI-dC), 2.5 mM EDTA, 1% glycerol; 20 uL, 20 min, room temperature; 6%

Sequence: CGGAATTCATCGCGGTGGTATTTTTGCGAGGAAGGCCGCGTTGGAAAACGATAGTCGGTGCTCGTTCATGCCGGCAAATGAGAAGATCGCCCATAGGTATGCAAAAATGATATGATAACAGCTGACCAGCTTTAGCCCGTGCGGACGAGGGGGAGAGGATGCGTTTCAGTCATCTAGAGC (double strand) [non-specific control promoter (Pcontrol)]
- binding: no binding
